Residue numbers refer to the chain shown, from its start.
B1: GLS3000 R29T (antibody, name in Kabat numbering, V domains shown)
VH: QVQLVESGGGVVQPGRSLRLSCAASGFTFSNAWMHWVRQAPGKGLEWVAQIKAKSNNYATYYAESVKGRFTISRDDSKNSLYLQMNSLKTEDTAVYYCRYVHYGAYYGVDAWGQGTTVTVSS
VL: DIVMTQSPLSLPVTPGEPASISCRSSQSLVHSNTNTYLHWYQQKPGQAPRLLIYKVSNRFSGVPDRFSGSGSGTDFTLKISRVEAEDVGVYYCGQGTQVPYTFGQGTKLEIK
notes: one-arm IgG as m2
B2: GLS3000 R54Q (antibody, name in Kabat numbering, V domains shown)
VH: B1 VH
VL: B1 VL with T34R, R59Q
notes: one-arm IgG as m2
B3: GLS3000 S25T (antibody, name in Kabat numbering, V domains shown)
VH: B1 VH
VL: B1 VL with S25T, T34R
notes: one-arm IgG as m2
B4: GLS3000 S27eF (antibody, name in Kabat numbering, V domains shown)
VH: B1 VH
VL: B1 VL with S32F, T34R
notes: one-arm IgG as m2
B5: GLS3000 S25E (antibody, name in Kabat numbering, V domains shown)
VH: B1 VH
VL: B1 VL with S25E, T34R
notes: one-arm IgG as m2
B6: GLS3000 S25V (antibody, name in Kabat numbering, V domains shown)
VH: B1 VH
VL: B1 VL with S25V, T34R
notes: one-arm IgG as m2
B7: GLS3000 S27aI (antibody, name in Kabat numbering, V domains shown)
VH: B1 VH
VL: B1 VL with S28I, T34R
notes: one-arm IgG as m2
B8: GLS3000 S26P (antibody, name in Kabat numbering, V domains shown)
VH: B1 VH
VL: B1 VL with S26P, T34R
notes: one-arm IgG as m2
B9: GLS3000 S25I (antibody, name in Kabat numbering, V domains shown)
VH: B1 VH
VL: B1 VL with S25I, T34R
notes: one-arm IgG as m2
B10: GLS3000 R29V (antibody, name in Kabat numbering, V domains shown)
VH: B1 VH
VL: B1 VL with T34V
notes: one-arm IgG as m2
B11: GLS3000 R29Y (antibody, name in Kabat numbering, V domains shown)
VH: B1 VH
VL: B1 VL with T34Y
notes: one-arm IgG as m2
B12: GLS3000 R77S (antibody, name in Kabat numbering, V domains shown)
VH: B1 VH
VL: B1 VL with T34R, R82S
notes: one-arm IgG as m2
B13: GLS3000 S27eI (antibody, name in Kabat numbering, V domains shown)
VH: B1 VH
VL: B1 VL with S32I, T34R
notes: one-arm IgG as m2
B14: GLS3000 S27eP (antibody, name in Kabat numbering, V domains shown)
VH: B1 VH
VL: B1 VL with S32P, T34R
notes: one-arm IgG as m2
B15: GLS3000 S27eE (antibody, name in Kabat numbering, V domains shown)
VH: B1 VH
VL: B1 VL with S32E, T34R
notes: one-arm IgG as m2
B16: GLS3000 R54D (antibody, name in Kabat numbering, V domains shown)
VH: B1 VH
VL: B1 VL with T34R, R59D
notes: one-arm IgG as m2
B17: GLS3000 S27eK (antibody, name in Kabat numbering, V domains shown)
VH: B1 VH
VL: B1 VL with S32K, T34R
notes: one-arm IgG as m2
B18: GLS3000 S25D (antibody, name in Kabat numbering, V domains shown)
VH: B1 VH
VL: B1 VL with S25D, T34R
notes: one-arm IgG as m2
B19: GLS3000 S27eG (antibody, name in Kabat numbering, V domains shown)
VH: B1 VH
VL: B1 VL with S32G, T34R
notes: one-arm IgG as m2
B20: GLS3000 S27aG (antibody, name in Kabat numbering, V domains shown)
VH: B1 VH
VL: B1 VL with S28G, T34R
notes: one-arm IgG as m2
B21: GLS3000 R54E (antibody, name in Kabat numbering, V domains shown)
VH: B1 VH
VL: B1 VL with T34R, R59E
notes: one-arm IgG as m2
B22: GLS3000 S25P (antibody, name in Kabat numbering, V domains shown)
VH: B1 VH
VL: B1 VL with S25P, T34R
notes: one-arm IgG as m2
B23: GLS3000 S27eD (antibody, name in Kabat numbering, V domains shown)
VH: B1 VH
VL: B1 VL with S32D, T34R
notes: one-arm IgG as m2
B24: GLS3000 S27eA (antibody, name in Kabat numbering, V domains shown)
VH: B1 VH
VL: B1 VL with S32A, T34R
notes: one-arm IgG as m2
B25: GLS3000 S27eL (antibody, name in Kabat numbering, V domains shown)
VH: B1 VH
VL: B1 VL with S32L, T34R
notes: one-arm IgG as m2
B26: GLS3000 S26E (antibody, name in Kabat numbering, V domains shown)
VH: B1 VH
VL: B1 VL with S26E, T34R
notes: one-arm IgG as m2
B27: GLS3000 R54S (antibody, name in Kabat numbering, V domains shown)
VH: B1 VH
VL: B1 VL with T34R, R59S
notes: one-arm IgG as m2
B28: GLS3000 S27aD (antibody, name in Kabat numbering, V domains shown)
VH: B1 VH
VL: B1 VL with S28D, T34R
notes: one-arm IgG as m2
B29: GLS3000 R54A (antibody, name in Kabat numbering, V domains shown)
VH: B1 VH
VL: B1 VL with T34R, R59A
notes: one-arm IgG as m2
B30: GLS3000 S27aP (antibody, name in Kabat numbering, V domains shown)
VH: B1 VH
VL: B1 VL with S28P, T34R
notes: one-arm IgG as m2
B31: GLS3000 R54G (antibody, name in Kabat numbering, V domains shown)
VH: B1 VH
VL: B1 VL with T34R, R59G
notes: one-arm IgG as m2
B32: GLS3000 S27eR (antibody, name in Kabat numbering, V domains shown)
VH: B1 VH
VL: B1 VL with S32R, T34R
notes: one-arm IgG as m2
B33: GLS3000 S27eM (antibody, name in Kabat numbering, V domains shown)
VH: B1 VH
VL: B1 VL with S32M, T34R
notes: one-arm IgG as m2
B34: GLS3000 S25A (antibody, name in Kabat numbering, V domains shown)
VH: B1 VH
VL: B1 VL with S25A, T34R
notes: one-arm IgG as m2
B35: GLS3000 S27aN (antibody, name in Kabat numbering, V domains shown)
VH: B1 VH
VL: B1 VL with S28N, T34R
notes: one-arm IgG as m2
B36: GLS3000 S27eH (antibody, name in Kabat numbering, V domains shown)
VH: B1 VH
VL: B1 VL with S32H, T34R
notes: one-arm IgG as m2
B37: GLS3000 S25L (antibody, name in Kabat numbering, V domains shown)
VH: B1 VH
VL: B1 VL with S25L, T34R
notes: one-arm IgG as m2
B38: GLS3000 R54T (antibody, name in Kabat numbering, V domains shown)
VH: B1 VH
VL: B1 VL with T34R, R59T
notes: one-arm IgG as m2
B39: GLS3000 S27eN (antibody, name in Kabat numbering, V domains shown)
VH: B1 VH
VL: B1 VL with S32N, T34R
notes: one-arm IgG as m2
B40: GLS3000 S27eQ (antibody, name in Kabat numbering, V domains shown)
VH: B1 VH
VL: B1 VL with S32Q, T34R
notes: one-arm IgG as m2
B41: GLS3000 R54W (antibody, name in Kabat numbering, V domains shown)
VH: B1 VH
VL: B1 VL with T34R, R59W
notes: one-arm IgG as m2
B42: GLS3000 S27aE (antibody, name in Kabat numbering, V domains shown)
VH: B1 VH
VL: B1 VL with S28E, T34R
notes: one-arm IgG as m2
B43: GLS3000 S26D (antibody, name in Kabat numbering, V domains shown)
VH: B1 VH
VL: B1 VL with S26D, T34R
notes: one-arm IgG as m2
B44: GLS3000 S25M (antibody, name in Kabat numbering, V domains shown)
VH: B1 VH
VL: B1 VL with S25M, T34R
notes: one-arm IgG as m2
B45: GLS3000 S27aY (antibody, name in Kabat numbering, V domains shown)
VH: B1 VH
VL: B1 VL with S28Y, T34R
notes: one-arm IgG as m2
B46: GLS3000 R54P (antibody, name in Kabat numbering, V domains shown)
VH: B1 VH
VL: B1 VL with T34R, R59P
notes: one-arm IgG as m2

What follows are binders tested against T1, CD3 epsilon homodimer protein (UniProt P07766 23-126) (assay: SPR Biacore T200, CD3e homodimer on chip, vs unaltered GLS3000 antibody).
T1 construct: also called CD3 (CD3 epsilon)
T1 sequence (P07766 23-126): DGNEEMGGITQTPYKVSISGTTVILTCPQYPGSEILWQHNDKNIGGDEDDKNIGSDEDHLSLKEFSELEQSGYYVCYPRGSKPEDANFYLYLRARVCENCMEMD

**Q.** For B1, which “ratio of amounts bound (Z=Y/X)” value is on record?
**A.** The value was 0.63.

**Q.** With B2 as the binder, how does the “ratio of amounts bound (Z=Y/X)” value read?
**A.** The value was 0.68.

**Q.** Which “ratio of amounts bound (Z=Y/X)” value does the source give for B3 here?
**A.** The value was 0.83.

**Q.** For B4, which “ratio of amounts bound (Z=Y/X)” value is on record?
**A.** The value was 1.32.

**Q.** For B5, which “ratio of amounts bound (Z=Y/X)” value is on record?
**A.** Its value is 0.21.

**Q.** With B6 as the binder, how does the “ratio of amounts bound (Z=Y/X)” value read?
**A.** Its value is 0.73.

**Q.** B7 was tested. Which “ratio of amounts bound (Z=Y/X)” value did it give?
**A.** Its value is 1.

**Q.** With B8 as the binder, how does the “ratio of amounts bound (Z=Y/X)” value read?
**A.** Its value is 0.78.

**Q.** How did the “ratio of amounts bound (Z=Y/X)” value turn out when B9 was run?
**A.** Its value is 0.53.

**Q.** How did the “ratio of amounts bound (Z=Y/X)” value turn out when B10 was run?
**A.** Its value is 0.34.

**Q.** How did the “ratio of amounts bound (Z=Y/X)” value turn out when B11 was run?
**A.** Its value is 0.69.

**Q.** Which “ratio of amounts bound (Z=Y/X)” value does the source give for B12 here?
**A.** The value was 0.92.

**Q.** B13 was tested. Which “ratio of amounts bound (Z=Y/X)” value did it give?
**A.** Its value is 1.07.

**Q.** B14 was tested. Which “ratio of amounts bound (Z=Y/X)” value did it give?
**A.** Its value is 1.26.

**Q.** With B15 as the binder, how does the “ratio of amounts bound (Z=Y/X)” value read?
**A.** The value was 0.76.

**Q.** How did the “ratio of amounts bound (Z=Y/X)” value turn out when B16 was run?
**A.** Its value is 0.36.

**Q.** Which “ratio of amounts bound (Z=Y/X)” value does the source give for B17 here?
**A.** Its value is 1.59.

**Q.** With B18 as the binder, how does the “ratio of amounts bound (Z=Y/X)” value read?
**A.** Its value is 0.18.

**Q.** For B19, which “ratio of amounts bound (Z=Y/X)” value is on record?
**A.** The value was 1.04.

**Q.** B20 was tested. Which “ratio of amounts bound (Z=Y/X)” value did it give?
**A.** The value was 1.03.

**Q.** B21 was tested. Which “ratio of amounts bound (Z=Y/X)” value did it give?
**A.** Its value is 0.58.

**Q.** How did the “ratio of amounts bound (Z=Y/X)” value turn out when B22 was run?
**A.** The value was 1.01.

**Q.** Which “ratio of amounts bound (Z=Y/X)” value does the source give for B23 here?
**A.** The value was 0.69.

**Q.** With B24 as the binder, how does the “ratio of amounts bound (Z=Y/X)” value read?
**A.** The value was 1.03.

**Q.** How did the “ratio of amounts bound (Z=Y/X)” value turn out when B25 was run?
**A.** The value was 1.17.

**Q.** B26 was tested. Which “ratio of amounts bound (Z=Y/X)” value did it give?
**A.** Its value is 0.74.

**Q.** For B27, which “ratio of amounts bound (Z=Y/X)” value is on record?
**A.** The value was 0.79.

**Q.** With B28 as the binder, how does the “ratio of amounts bound (Z=Y/X)” value read?
**A.** Its value is 0.79.

**Q.** B29 was tested. Which “ratio of amounts bound (Z=Y/X)” value did it give?
**A.** The value was 0.69.

**Q.** With B30 as the binder, how does the “ratio of amounts bound (Z=Y/X)” value read?
**A.** The value was 0.99.

**Q.** Which “ratio of amounts bound (Z=Y/X)” value does the source give for B31 here?
**A.** The value was 0.67.

**Q.** Which “ratio of amounts bound (Z=Y/X)” value does the source give for B32 here?
**A.** Its value is 1.58.

**Q.** Which “ratio of amounts bound (Z=Y/X)” value does the source give for B33 here?
**A.** Its value is 1.23.

**Q.** B34 was tested. Which “ratio of amounts bound (Z=Y/X)” value did it give?
**A.** Its value is 0.92.

**Q.** With B35 as the binder, how does the “ratio of amounts bound (Z=Y/X)” value read?
**A.** Its value is 1.1.

**Q.** With B36 as the binder, how does the “ratio of amounts bound (Z=Y/X)” value read?
**A.** The value was 1.23.

**Q.** How did the “ratio of amounts bound (Z=Y/X)” value turn out when B37 was run?
**A.** Its value is 0.24.

**Q.** With B38 as the binder, how does the “ratio of amounts bound (Z=Y/X)” value read?
**A.** Its value is 0.65.

**Q.** B39 was tested. Which “ratio of amounts bound (Z=Y/X)” value did it give?
**A.** The value was 1.16.

**Q.** Which “ratio of amounts bound (Z=Y/X)” value does the source give for B40 here?
**A.** The value was 1.1.

**Q.** Which “ratio of amounts bound (Z=Y/X)” value does the source give for B41 here?
**A.** Its value is 0.78.

**Q.** Which “ratio of amounts bound (Z=Y/X)” value does the source give for B42 here?
**A.** The value was 0.81.

**Q.** B43 was tested. Which “ratio of amounts bound (Z=Y/X)” value did it give?
**A.** The value was 0.86.

**Q.** B44 was tested. Which “ratio of amounts bound (Z=Y/X)” value did it give?
**A.** Its value is 0.31.

**Q.** B45 was tested. Which “ratio of amounts bound (Z=Y/X)” value did it give?
**A.** Its value is 1.1.

**Q.** For B46, which “ratio of amounts bound (Z=Y/X)” value is on record?
**A.** Its value is 0.84.

Source: patent publication US20210388087A1 (Chugai, published 2021)
